Consider four molecules from article PMC4013091, “Stabilization and Augmentation of Circulating AIM in Mice by Synthesized IgM-Fc” (PLoS ONE, 2014).

Test [1] concerns the target FL-hFc, human IgM-Fc with a FLAG tag on the N-terminus of the CH2 domain (human). In words: non-reducing SDS-PAGE and western blot; culture supernatant of HEK293T cells transfected with pCAGGS-FL-hFc only, without IgJ. For orientation: Immunoblotting shows a protein as a band on a membrane.
Test [2] has the same target. In words: non-reducing SDS-PAGE and western blot; culture supernatant of HEK293T cells co-transfected with FL-hFc and IgJ-Myc; blotted with anti-FLAG and anti-Myc antibodies.
In test [3] the target is human IgM-Fc pentamer (FL-hFc) combined with IgJ-Myc (human) (UniProt P01591).
human IgM-Fc pentamer (FL-hFc) combined with IgJ-Myc (human), sequence (P01591 whole entry): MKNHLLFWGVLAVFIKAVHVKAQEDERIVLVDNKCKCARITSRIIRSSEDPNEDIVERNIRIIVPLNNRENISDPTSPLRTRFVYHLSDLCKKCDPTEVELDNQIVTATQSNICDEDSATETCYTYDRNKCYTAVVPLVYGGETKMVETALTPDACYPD
Test [4] deals with T1, human recombinant AIM (apoptosis inhibitor of macrophage) (human, UniProt O43866 20-347).
T1 construct: also called human rAIM; rAIM; source: purified recombinant
T1 sequence (looked up): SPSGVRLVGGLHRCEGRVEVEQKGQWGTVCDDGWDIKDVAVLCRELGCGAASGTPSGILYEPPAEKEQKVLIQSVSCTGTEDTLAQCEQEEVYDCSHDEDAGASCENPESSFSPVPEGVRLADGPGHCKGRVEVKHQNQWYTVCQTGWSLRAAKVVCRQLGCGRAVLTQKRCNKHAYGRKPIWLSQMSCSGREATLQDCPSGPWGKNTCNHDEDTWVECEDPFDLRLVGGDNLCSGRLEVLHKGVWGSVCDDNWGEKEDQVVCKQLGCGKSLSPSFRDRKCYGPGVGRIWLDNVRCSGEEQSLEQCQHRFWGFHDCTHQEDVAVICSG
In words: SPR; Biacore 3000, 25°C; human rAIM covalently immobilised (2800 RU) on a CM5 chip; IgM-Fc monomer injected in 10 mM HEPES pH 7.4, 150 mM NaCl, 3 mM EDTA, 0.05% Tween-20 at 20 µL/min; 1:1 Langmuir model; apparent affinity. As to conditions: both partners purified.

Test [5] deals with human IgM-Fc pentamer (FL-hFc) combined with IgJ-Myc (human) (UniProt P01591). This is another data set of the same source.
Test [6] shares this target. In words: sequential immunoaffinity co-purification; supernatant of co-cultured HEK 293T cells (hAIM-HA cells with FL-hFc and IgJ-Myc cells); anti-hAIM monoclonal antibody column, then anti-FLAG column; fractions blotted with anti-HA and anti-FLAG.

“And” between values parts separate entries of the source, which are not always exact repeats. Equal values may be shown once.

The stoichiometry N is a count of units in the complex or per binding partner. Take “FL-hFc, human IgM-Fc with a FLAG tag on the N-terminus of the CH2 domain (domain or fragment)”: the stoichiometry N in test [1] was 5 and 6; in test [2], 5.

B1: endogenous mouse AIM in serum (natural protein)
chain: ESPTKVQLVGGAHRCEGRVEVEHNGQWGTVCDDGWDRRDVAVVCRELNCGAVIQTPRGASYQPPASEQRVLIQGVDCNGTEDTLAQCELNYDVFDCSHEEDAGAQCENPDSDLLFIPEDVRLVDGPGHCQGRVEVLHQSQWSTVCKAGWNLQVSKVVCRQLGCGRALLTYGSCNKNTQGKGPIWMGKMSCSGQEANLRSCLLSRLENNCTHGEDTWMECEDPFELKLVGGDTPCSGRLEVLHKGSWGSVCDDNWGEKEDQVVCKQLGCGKSLHPSPKTRKIYGPGAGRIWLDDVNCSGKEQSLEFCRHRLWGYHDCTHKEDVEVICTDFDV
As for B1, the circulating mouse AIM level in Δsμ mice 24 h after i.v. injection of 1 mg FL-hFc, as percent of that in the wild-type mouse (immunoblot of serum) in test [3] stood at 35%.

B2: monomeric human IgM-Fc (CH2-CH3-CH4) with a C-terminal Myc tag (domain or fragment)
chain: IAELPPKVSVFVPPRDGFFGNPRKSKLICQATGFSPRQIQVSWLREGKQVGSGVTTDQVQAEAKESGPTTYKVTSTLTIKESDWLGQSMFTCRVDHRGLTFQQNASSMCVPDQDTAIRVFAIPPSFASIFLTKSTKLTCLVTDLTTYDSVTISWTRQNGEAVKTHTNISESHPNATFSAVGEASICEDDWNSGERFTCTVTHTDLPSPLKQTISRPKGVALHRPDVYLLPPAREQLNLRESATITCLVTGFSPADVFVQWMQRGQPLSPEKYVTSAPMPEPQAPGRYFAHSILTVSEEEWNTGETYTCVVAHEALPNRVTERTVDKSTGKPTLYNVSLVMSDTAGTCY
modifications: Disulfide-linked dimer of the mu Fc chain (~100-110 kDa), N-glycosylated (HEK293T). C-terminal Myc tag, which blocks pentamer formation, omitted. Limits not printed: CH2 start by domain convention. …
As usually defined, the koff is the rate constant with which the complex falls apart. For orientation: kon means the rate constant with which the complex forms. As to B2, in test [4], the Kd was 153 nM, the off-rate constant (koff) stood at 0.00315 s⁻¹ and the kon was 20500 M⁻¹ s⁻¹.

B3: HA-tagged human AIM (natural protein)
chain: T1 sequence (looked up)
As to B3, the half-life of hAIM in the blood of wild-type mice after i.v. injection of 100 µg hFc-AIM complex (less than 2 h for hAIM alone) in test [5] was found to be 12 h. Moreover, in test [6], the mass of hAIM in 100 µg of the purified hFc-AIM complex came out at 20 µg.
